Measurements taken from patent US20240076348A1.

Biological target: Colony-stimulating factor-1 receptor (CSF-1R), encoded by c-fms (UniProt P07333)
Experiment: cell-based or functional assay

“C34B pCAR (CSF1-28z plus IL34-41BB), expressed on human T-cells (from UniProt P09603 33-190; Q6ZMJ4 21-242)” gave a tumour cell killing on repeated re-stimulation, MTT assay on T47D FMS and T47D monolayers (iterative cycles of re-stimulation) of less than 13.
